According to the supplement of paper PMC9170038:

Experiments:
MS2 coat protein = assay: apparent KD of MS2 coat protein; higher = weaker reporter binding; settings: Eterna round: R107
Protocol: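 RNA-MaP round R107: designed RNA switches with theophylline, tryptophan, arginine or FMN aptamers are transcribed on-chip within common flanks. They are titrated with SNAP-549-labelled MS2 coat protein in RNA-MaP buffer (100 mM Tris pH 7.5, 80 mM KCl, 4 mM MgCl2), without ligand or with the indicated ligand. Median apparent KD per design.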

[1] = tested on: K4 kissing-loop RNA reporter; assay: apparent KD of K4 kissing-loop reporter; higher = weaker reporter binding; settings: Eterna round: R107;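 note: bound reporter read as fluorescence of individual clusters on recovered sequencing chips by microscopy, with normalized cluster intensities fitted with a binding model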
Protocol: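 RNA-MaP round R107: designed RNA switches with theophylline, tryptophan, arginine or FMN aptamers are transcribed on-chip within common flanks. They are titrated with a labelled K4 kissing-loop RNA reporter in RNA-MaP buffer (100 mM Tris pH 7.5, 80 mM KCl, 4 mM MgCl2), without ligand or with the indicated ligand. Median apparent KD per design.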

[2] = input ligand: theophylline 20 uM
[3] = input ligand: theophylline 2 mM
[4] = input ligand: tryptophan 2.4 mM

Sequence	apparent KD of MS2 coat protein (MS2 coat protein; input ligand: arginine 13.2 mM)	apparent KD of MS2 coat protein (MS2 coat protein; input ligand: none)	apparent KD of MS2 coat protein (MS2 coat protein; [2])	apparent KD of MS2 coat protein (MS2 coat protein; [3])	apparent KD of MS2 coat protein (MS2 coat protein; [4])	apparent KD of K4 kissing-loop reporter ([1]; input ligand: FMN 200 uM)	apparent KD of K4 kissing-loop reporter ([1]; input ligand: arginine 13.2 mM)	apparent KD of K4 kissing-loop reporter ([1]; input ligand: none)	apparent KD of K4 kissing-loop reporter [1, 2]	apparent KD of K4 kissing-loop reporter [1, 4]
AAAACUCAUGGCUUAUAUCCGUGUCUCGAAGGAGCGUACAGCGGUACAGGUAGGUCGCGAGACAUGAGGAUCACCCAUGUGUAAA [XArg-A 20 V1&2 original #dotplot2>1]	22.3 nM	38.1 nM	119 nM	1.46 nM	0.526 nM					
AAAAGAGGUGGAAGGAGCGGGAGACAUGAGGAUCACCCAUGUGAUGUUACGAAAGGUUCAGCCCAGGUAGGUCGCCAUGUCGAAA [zczzmullin]	36.6 nM	46.8 nM	268 nM	175 nM	34.7 nM					
AAAAUAAAAUAAAAGGUGGAAAUAAGGCGGCGAGGACCGGUACGGCCGCCACUCGCGUACAUGAGGAUCACCCAUGUCUGAAAAU [Same State - Tryptophan A (Freestyle 1)]	20.3 nM		28.2 nM	26.6 nM						
AAAAUAAAGGCGGCCGCCACUAGAGUUAGGCUUAUGUACUGGGUAACAUGAGGAUCACCCAUGUAUAGGACCGGGCCAUAAUAAA [Same State - Tryptophan B (Freestyle 2)]	28 nM	57.3 nM	82.1 nM	73 nM	66.5 nM					
AAAAUAAAUAAAACACGUAACAUGAAGGAUACCAGCCAGAAAACUGGCCCUUGGCAGCCUCUACAUGAGGAUCACCCAUGUCGUG [Mat - Same State Theophlline A - Mod of Eli - D16]	156 nM		114 nM		293 nM					
AAAAUAUACGGAAGGAGCGUGUAAGAUUAAGAACAUGAGGAUCACCCAUGUUUUAAGGGAACACAGGUAGGUCGCCGUAUAUAAA [11.N]	12.9 nM	11.9 nM	11.6 nM	10.3 nM	11.8 nM					
AAACAUGAGGAUCACCCAUGUAAAGUUGAAGGAGCGACCAGAGGGUCAGGUAGGUCGCAACACAUGAGGAUCACCCAUGUAUCGA [DOUBLE!!! :-D #5]	41.3 nM	96.5 nM	88.5 nM	91.6 nM	72.7 nM					
AAACAUGAGGAUCACCCAUGUAUACUUAGACGAGGACCGGUACGGCCGCCACUCGAACUUCAAGAUUUGGCGGAUAAUGUAUGUA [JR_Nu22_ExcTryptoA_Sub023]	9.74 nM	10.9 nM	16.1 nM	11.9 nM	11.9 nM					
AAACAUUGCUCAGAUACCAGACAUGAGGAUCACCCAUGUACCAAGGUAACCGAAAGGCAUGUCCCUUGGCAGCUGAGCAAUGAAA [MAT - Exclusion Theophlline B - Mod of Eli - D15]	13.5 nM		17.4 nM		13 nM					
AAACCAAGGGAUGGGUGCCUUGGUAGUGAUACCAGCCUGGAAACAGGCCCUUGGCAGCACAUGAGGAUCACCCAUGUGAAAUAAU [TheoAX 18#OpenEnded]	22.9 nM	27.7 nM	89.6 nM	69.2 nM	46.6 nM					
AAACGUUGCUGCGAUACCAGACAUGAGGAUCACCCAUGUACCAAGGUACGAAUAUAACAUGUCCCUUGGCAGCGCAGCAACGAAA [MAT - Exclusion Theophlline B - Mod of Eli - D7]	17.5 nM		22.7 nM		13.6 nM					
AAACUGAUCUUCAGGAGUCACUAUAUCUCCCGAGGACCGGUACGGCCGCCACUCGAACGUUUACAUGAGGAUCACCCAUGUGACU [theeternabot_exclusion_MS2_Trp_A_4]	13.6 nM		16.4 nM	14.9 nM						
AAAUAAAUAACUGAUACCAGUGUACUGACAUGAGGAUCACCCAUGUUGGGUUUUGUUGUACACCCUUGGCAGCAGAAAUAUAAAA [AstrosExyTheB#1]	28.7 nM		41.2 nM		37.9 nM					
AAAUAAAUACAUGAGGAUCACCCAUGUGAAGGAGCGCCCGUUAGGGCAGGUAGGUCGCACAUGAAAGGGAAGCGAAAGAAAUAAU [ArgEX 15 #OpenEnded]	26.8 nM	20.2 nM	24.5 nM	16.5 nM	20.3 nM					
AAAUAAAUACAUGAGGAUCACCCAUGUGAAGGAGCGCCCGUUAGGGCAGGUAGGUCGCACAUGAACUCCAAGCGAAAGAAAUAAU [ArgEX 16 #OpenEnded]	23.6 nM	18.3 nM	23.9 nM	22.7 nM	16.4 nM					
AAAUAAAUACAUGAGGAUCACCCAUGUGAAGGAGCGCCCGUUAGGGCAGGUAGGUCGCACAUGAAUAACUCCGCGCGAAAGCGCA [MAT - Exclusion Arginine A - Mod of Eli - D10]	41.8 nM	38.7 nM	37.1 nM	52.6 nM	35.8 nM					
AAAUAGGUAGGAGAUACCAGAUACGUUAACAUGAGGAUCACCCAUGUGUAUGCACUUAGUGUCCCUUGGCAGCUCGAGGAUCUGG [#18 Same State - Theophylline B]	23.3 nM		37 nM		27.4 nM					
AAAUUAUAGGCGGCCGCCACUAGAGUUAGGCUUAUGUACUGGGUAACAUGAGGAUCACCCAUGUAUAGGACCGGGCCAUAAUAAA [Same State - Tryptophan B (Freestyle 3)]	46.9 nM		76.2 nM	63.5 nM						

Sequence	apparent KD of MS2 coat protein (MS2 coat protein; input ligand: arginine 13.2 mM)	apparent KD of MS2 coat protein (MS2 coat protein; input ligand: none)	apparent KD of MS2 coat protein (MS2 coat protein; [2])	apparent KD of MS2 coat protein (MS2 coat protein; [3])	apparent KD of MS2 coat protein (MS2 coat protein; [4])	apparent KD of K4 kissing-loop reporter ([1]; input ligand: FMN 200 uM)	apparent KD of K4 kissing-loop reporter ([1]; input ligand: arginine 13.2 mM)	apparent KD of K4 kissing-loop reporter ([1]; input ligand: none)	apparent KD of K4 kissing-loop reporter [1, 2]	apparent KD of K4 kissing-loop reporter [1, 4]
AACAACUAGUCGGCCGCCACUCAUAAUACAUGAGGAUCACCCAUGUAUACUUGGUUUUUAUAUUUGAGGACCGGGACAGUUGCAU [JR_Nu_ExcTryptoB_Sub026]	12.5 nM		14.7 nM	10.7 nM						
AACAUGAGGAUCACCCAUGUAAAAUGGGAUACCAGAGACGAAAGUCUCCCUUGGCAGCCCACUGCCUCCUUUACGAAAGUAGAGG [Theophylline A 15]	29.8 nM		32.5 nM		38.3 nM					
AACAUGAGGAUCACCCAUGUAUUGGGUGAUACCAGCCUGAAUAAUGGCCCUUGGCAGCACCACGCUAACUUUAUGUCUGCGAACC [Maus]	39.3 nM		263 nM		83.6 nM					
AACAUGAGGAUCACCCAUGUCGGGCCGGUGCGAGGACCGGUACGGCCGCCACUCGAGACAUGAGGAUCACCCAUGUUGUGCGUGA [Exclusion Tryptophan A GF23]	52.6 nM	162 nM	195 nM	221 nM	138 nM					
AACAUGAGGAUCACCCAUGUCUGAACUGAAGGAGCGCUAAAUAAGGCAGGUAGGUCGCGGAAUUUUGUGUAUAUAUAUAUAUGGG [9.G]	17.6 nM	27.1 nM	34.2 nM	25 nM	24.3 nM					
UUUAUUAAGACGGCCGCCACUGAUUCAUAGUGAUGUUAUGAUAUAAUUUUAGUGAUGUGCAUUAGCAGGACCGGGUCAAUUAUUA [#28 K4 Tryptophan B Exclusion]						125 nM	108 nM	120 nM	94.7 nM	101 nM
UUUCAAAUUUAAGGAUAUUAGAUACCAGGAAAGGAGUGAUGUUCCGUGCUACGAUAGUGCUAGGGCUAAGAAGGUAAGUCUCGAG [theeternabot_sameState_KL_FMN_B_37]						79.1 nM	87.2 nM	85.6 nM	89.6 nM	59.1 nM
UUUCGUAGAAGUGAUACCAGACUGGAAAGUGAUGUUUUCCAAUUAUUUAAAUCCUUAUCUGUCCCUUGGCAGCACAGUUUAUUUA [JR_Nu_ExcTheophyB_Sub027]						71.8 nM	81.3 nM	75.5 nM	97.6 nM	70 nM
UUUCGUCUCUGAGGAUAUCAGAAUAGAGUGAUGUUCUAUCAAAGCCCAGUGAUGUUGGAUGCUAUCUGAGAAGGCAGUGGGCGAG [Same State FMN B GF 11]						196 nM	183 nM	249 nM	185 nM	219 nM
UUUCUACCGGGAAGGAGCGUGAAUGAUAAUGGAUAUAGUGAUGUUAUAUAUACGAACGAAUCGCAGGUAGGUCGCCCGGAUCACU [SSArgB.U]						655 nM	859 nM	1470 nM	1480 nM	1090 nM
UUUGGAAGCGGUGUUGAUUAGGGAGCGGAAGGAGCGCCGAUUAUGGCAGGUAGGUCGCCGGAAUGUAGUGAUGUUGCAUAGAGGU [ExArgA.X]						185 nM	130 nM	240 nM	273 nM	128 nM
UUUGGUUUCUCGGCCGCCACUCGUUGGUUAUGGGCCUCAGGGAUAUAGUGAUGUUAUGUAAAGAAGAGGACCGGGAGAAGGAAGG [ExTryptoB.Do]						493 nM	395 nM	225 nM	283 nM	380 nM
UUUGGUUUCUCGGCCGCCACUCGUUGGUUAUGGGCUUCAGGGAUAUAGUGAUGUUAUGUAUAGAAGAGGACCGGGAGAAGGAAGG [ExTryptoB.Dq]						195 nM	245 nM	288 nM	186 nM	269 nM
UUUGGUUUCUCGGCCGCCACUCGUUGUCUAUGGGCUUCAGGGAUAUAGUGAUGUUAUGUAUAGAAGAGGACCGGGAGAAGGUUUU [ExTryptoB.Dv]						427 nM	77.9 nM	683 nM	42.3 nM	161 nM
UUUUACGAGUGAUGUUCGUAUUGUAAUAGUUAGGAUAUCGUUUUUUCGAGAAGGAACUUCGAAGUGAUACGAAAGUAUCGCUUCG [FMN A 10]						138 nM	142 nM	154 nM	143 nM	130 nM
UUUUUAAUCGCAGAUACCAGUCCAGAAUAAAUACUAUAGUGAUGUUAUAUAUAAGGAAAGGACCCUUGGCAGCUGUACUAUAUUU [AstrosSsTheB#8]						411 nM	322 nM	392 nM	245 nM	346 nM
UUUUUGGAGAAUUAUAGUGAUGUUAUGAAGGAGGAUAUCUGGAGAUGGAGAAGGCCUAGUGGCUCAGCCCUCGAGGGUGGGUGGG [ExFMNA.aC]						646 nM	626 nM	441 nM	778 nM	354 nM
